T1: catalase (Bos taurus, UniProt P00432)
T1 sequence (P00432 2-527 limits assumed): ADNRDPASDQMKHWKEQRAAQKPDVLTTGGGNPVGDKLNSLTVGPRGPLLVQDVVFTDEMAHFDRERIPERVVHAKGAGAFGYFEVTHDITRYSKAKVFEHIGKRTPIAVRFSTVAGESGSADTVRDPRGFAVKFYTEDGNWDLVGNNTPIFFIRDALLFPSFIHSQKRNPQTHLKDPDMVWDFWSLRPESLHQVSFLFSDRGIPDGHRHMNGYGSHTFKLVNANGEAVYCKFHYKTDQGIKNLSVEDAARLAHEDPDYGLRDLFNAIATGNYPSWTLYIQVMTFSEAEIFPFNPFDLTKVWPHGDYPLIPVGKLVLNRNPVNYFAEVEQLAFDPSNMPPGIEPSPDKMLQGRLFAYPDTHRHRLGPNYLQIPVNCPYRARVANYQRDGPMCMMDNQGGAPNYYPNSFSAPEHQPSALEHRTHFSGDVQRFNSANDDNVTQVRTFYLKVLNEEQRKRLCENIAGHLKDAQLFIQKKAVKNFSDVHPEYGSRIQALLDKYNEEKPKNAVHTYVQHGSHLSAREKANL

T2: ribonuclease A (Bos taurus, UniProt P61823)
T2 sequence (P61823 27-150): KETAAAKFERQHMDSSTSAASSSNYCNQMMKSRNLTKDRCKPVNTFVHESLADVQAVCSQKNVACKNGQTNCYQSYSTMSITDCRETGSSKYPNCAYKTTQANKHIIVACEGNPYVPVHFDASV


Assays:
catalase = molecular target: T1, catalase; test: Catalase enzymatic activity (method of Beers and Sizer); format: biochemical; conditions: native enzyme
Description: (§1) To evaluate the different influence on enzyme properties as a function of polymerization with POZ derivatives of the present disclosure and corresponding PEG polymers known in the art, three different enzymes, ribonuclease A, uricase and catalase, were modified with M-PEOZ-O—CH2—CO2—NHS (6 kDa) and PEG-O—CH2—CO2—NHS (5.5 kDa). To facilitate the comparison, each enzyme was modified under similar conditions regarding polymer to enzyme ratios, buffer, pH and reaction temperature.
The conditions of enzyme modification with the POZ and PEG polymers described above were 0.2 M, pH 8.5 in borate buffer. The amount of POZ and PEG polymer used for modification was calculated on the basis of calculated total available amino groups in each enzyme. […]
To the three enzymes solutions (2.5 mg/ml) M-POZ-O—CH2—CO2—NHS or PEG-O—CH2—CO2—NHS solid were added at room temperature at a molar ratio of polymer to protein amino groups of 2/1 and 1/1 respectively. Protein concentration of the native forms of ribonuclease, uricase and catalase was evaluated spectrophotometrically using molar extinction coefficients of 9.45×10^3, 13×10^3 and 1.67×10^5 at 280 nm, respectively. […]
The degree of protein modification was evaluated colorimetrically by TNBS assay and expressed as percentage of conjugate amino groups to the total ones present on the protein. […]

ribonuclease A = molecular target: T2, ribonuclease A; test: Ribonuclease enzymatic activity (method of Crook et al.); format: biochemical
Description: as §1
The conditions of enzyme modification with the POZ and PEG polymers described above were 0.2 M, pH 8.5 in borate buffer. The amount of POZ and PEG polymer used for modification was calculated on the basis of calculated total available amino groups in each enzyme. For example, ribonuclease A has a molecular weight of 13.7 kDa and 11 available amino groups; uricase has a molecular weight of 130 kDa and 100 available amino groups; and catalase has a molecular weight of 240 kDa and 112 available amino groups.
To the three enzymes solutions (2.5 mg/ml) M-POZ-O—CH2—CO2—NHS or PEG-O—CH2—CO2—NHS solid were added at room temperature at a molar ratio of polymer to protein amino groups of 2/1 and 1/1 respectively. Protein concentration of the native forms of ribonuclease, uricase and catalase was evaluated spectrophotometrically using molar extinction coefficients of 9.45×10^3, 13×10^3 and 1.67×10^5 at 280 nm, respectively. After 30 minutes, polymer-enzyme conjugates were purified from unreacted polymer and n-hydroxysuccinimide by gel filtration chromatography Sephadex G-75 column, with 0.1M phosphate buffer, pH 7.4 as eluent.
The degree of protein modification was evaluated colorimetrically by TNBS assay and expressed as percentage of conjugate amino groups to the total ones present on the protein. Enzymatic activity of native and modified enzymes was evaluated as follows: ribonuclease activity was assayed by the method of Crook et al. (Biochem J. 1960 February; 74:234-8); uricase activity was determined by the method of Mahler (Anal Biochem. 1970 November; 38(1):65-84); and catalase was assayed according to a method reported by Beers and Sizer (J. Biol. Chem. 1952 March; 195(1):133-40).

% activity (catalase)	% activity (ribonuclease A; native enzyme)	% activity (ribonuclease A; NH2:polymer molar ratio 1:1)	% activity (ribonuclease A; NH2:polymer molar ratio 2:1)	Molecule
100%				Catalase
	100%			RNAse: native ribonuclease A (protein, UniProt P61823 27-150, looked up) Ribonuclease pancreatic: KETAAAKFERQHMDSSTSAASSSNYCNQMMKSRNLTKDRCKPVNTFVHESLADVQAVCSQKNVACKNGQTNCYQSYSTMSITDCRETGSSKYPNCAYKTTQANKHIIVACEGNPYVPVHFDASV
		15%	10%	PEG/RNAse: ribonuclease A modified with PEG-O—CH2—CO2—NHS (5.5 kDa) (conjugate, UniProt P61823 27-150, looked up, PEG 5.5 kDa conjugate) Ribonuclease pancreatic: KETAAAKFERQHMDSSTSAASSSNYCNQMMKSRNLTKDRCKPVNTFVHESLADVQAVCSQKNVACKNGQTNCYQSYSTMSITDCRETGSSKYPNCAYKTTQANKHIIVACEGNPYVPVHFDASV
		50%	30%	POZ/RNAse: ribonuclease A modified with M-PEOZ-O—CH2—CO2—NHS (6 kDa) (conjugate, UniProt P61823 27-150, looked up, M-PEOZ 6 kDa conjugate) Ribonuclease pancreatic: KETAAAKFERQHMDSSTSAASSSNYCNQMMKSRNLTKDRCKPVNTFVHESLADVQAVCSQKNVACKNGQTNCYQSYSTMSITDCRETGSSKYPNCAYKTTQANKHIIVACEGNPYVPVHFDASV

Reference: US7943141B2, “Activated polyoxazolines and compositions comprising the same” (Serina Therapeutics, Inc., priority 2007, dated 2011)
